From article doi:10.1101/091884 (bioRxiv, 2016)
Values belong to the molecule of their own block, whether it stands above or below them.

Experiments:
Assay in all cases: SEC + other: SDS-PAGE
[1] = molecular target: B. pumilus BslA_(37-177) (Bacillus pumilus SAFR-032)
[2] = molecular target: B. licheniformis BslA_(40-17g) (Bacillus licheniformis DSM13)
[3] = molecular target: B. amyloliquefaciens BslA_(42-181) (Bacillus amyloliquefaciens FZB42)
SEC + other: SDS-PAGE = molecular target: the molecule itself

Molecule: B. pumilus BslA_(37-177) (domain or fragment)
stoichiometry N [1]: 2

B1: B. subtilis BslA_(42-181) (domain or fragment, Bacillus subtilis, UniProt P71014 42-181, looked up)
chain: MRTQSTASLFATITGASKTEWSFSDIELTYRPNTLLSLGVMEFTLPSGFTANTKDTLNGNALRTTQILNNGKTVRVPLALDLLGAGEFKLKLNNKTLPAAGTYTFRAENKSLSIGNKFYAEASIDVAKRSTPPTQPCGCN
stoichiometry N (SEC + other: SDS-PAGE): 2

Other lines, results leading:

stoichiometry N [2]: 2
Molecule: B. licheniformis BslA_(40-17g) (domain or fragment)

stoichiometry N [3]: 2
Molecule: B. amyloliquefaciens BslA_(42-181) (domain or fragment)
